The record followed here is patent publication US20020119944A1.

This experiment addresses neuropilin-1 on adult rat brain oligodendrocytes (rat) (UniProt Q9QWJ9).

The substance Sema3A (ligand) displayed a branching index (BI) of oligodendrocyte process extension (% decrease of BI at 48 h) of 81 and a half-effect, corresponding to a BI reduction of 50% of 25 ng/mL.
